Results from patent US20230125561A1 (PNEUMAGEN, published 2023).

Tests used:
[1] = target: T1, recombinant human ACE2 (Angiotensin-converting enzyme 2) (human, UniProt Q9BYF1 18-740); assay: ELISA: ACE2 immobilised at 1 µg/mL, Neumifil titrated, detected with rabbit anti-Neumifil and HRP anti-rabbit IgG, 4PL fit
T1 construct: Bought recombinant protein

[2] = target: T2, SARS-CoV-2 Spike S1 protein, Wuhan (Wuhan-Hu-1, Dec 2019 isolate) (SARS-CoV-2, UniProt P0DTC2 16-685); assay: ELISA: Spike S1 immobilised at 1 µg/mL, Neumifil titrated, detected with rabbit anti-Neumifil and HRP anti-rabbit IgG, 4PL fit
T2 construct: domain: S1; also called original Spike protein

T1 sequence (Q9BYF1 18-740 limits assumed): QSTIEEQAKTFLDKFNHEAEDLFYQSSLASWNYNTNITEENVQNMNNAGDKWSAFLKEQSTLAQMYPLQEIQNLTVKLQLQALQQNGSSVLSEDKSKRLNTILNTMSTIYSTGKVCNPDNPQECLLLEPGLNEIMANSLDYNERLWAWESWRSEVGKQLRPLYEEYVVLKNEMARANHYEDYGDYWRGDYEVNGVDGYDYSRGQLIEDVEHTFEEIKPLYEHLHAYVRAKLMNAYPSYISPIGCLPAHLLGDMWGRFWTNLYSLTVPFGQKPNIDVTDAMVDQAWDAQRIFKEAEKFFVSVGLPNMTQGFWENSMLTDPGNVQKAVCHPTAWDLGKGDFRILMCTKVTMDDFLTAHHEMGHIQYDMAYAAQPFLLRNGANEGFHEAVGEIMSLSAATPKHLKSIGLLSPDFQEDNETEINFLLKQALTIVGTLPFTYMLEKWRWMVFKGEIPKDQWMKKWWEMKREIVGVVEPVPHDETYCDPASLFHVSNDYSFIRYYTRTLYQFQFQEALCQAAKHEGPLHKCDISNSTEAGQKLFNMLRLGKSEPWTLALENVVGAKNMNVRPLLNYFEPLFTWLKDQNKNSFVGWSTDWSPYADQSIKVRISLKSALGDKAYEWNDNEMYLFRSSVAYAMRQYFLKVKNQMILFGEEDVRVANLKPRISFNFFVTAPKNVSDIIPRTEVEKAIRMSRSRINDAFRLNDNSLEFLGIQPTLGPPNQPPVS

B1: Neumifil (HEX17: trimeric (hexavalent) form based on S. pneumoniae CBM40) (designed binder)
chain: GAMVIEKEDVETNASNGQRVDLSSELDKLKKLENATVHMEFKPDPKAPAFYNLFSVSSATKKDEYFTMAVYNNTATLEGRGSDGKQFYNNYNDAPLKVKPGQWNSVTFTVEKPTAELPKGRARLYVNGGLSRTSLRSGNFIKDMPDVTHVQIGATKRANNTVWGSNLQIRNLTVYNRALTPEEVQKRSGGGSGVIEKEDVETNASNGQRVDLSSELDKLKKLENATVHMEFKPDPKAPAFYNLFSVSSATKKDEYFTMAVYNNTATLEGRGSDGKQFYNNYNDAPLKVKPGQWNSVTFTVEKPTAELPKGRARLYVNGGLSRTSLRSGNFIKDMPDVTHVQIGATKRANNTVWGSNLQIRNLTVYNRALTPEEVQKRSGGSLGVPDFESDWFDVSSNSLYTLSHGLQRSPRRVVVEFARSSSPSTWNIVMPSYFNDGGHKGSGAQVEVGSLNIKLGTGAAVWGTGYFGGIDNSATTRFATGYYRVRAWI
notes: also called CBM2
Binder B1 has an EC50 [1] of 0.235 µg/mL and an EC50 [2] of 0.174 µg/mL.
